# ± gives the standard error. Variants at the floor of the assay were thinned out.
# B1: glmS ribozyme (parent)
# chain: AUAAAAGCGCCAGAACUACAGAAAUGUAGUUGACGAGGAGGAGGUUUAUCGAAUUUUCGGCGGAUGCCUCCAAA
# Key:
# Conditions in all cases: with glucosamine-6-phosphate
# glucosamine-6-phosphate [1] = variants of: B1; assay: self-cleavage kobs at 40 uM GlcN6P; higher = faster cleavage; RNA array
# How it was run: (§1)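 Barcoded ribozyme variants on sequenced MiSeq chips were transcribed in situ by E. coli RNA polymerase and followed at 37 °C through a hybridised Cy3 probe. Glucosamine-6-phosphate at 40 μM to 10 mM in HEPES/KCl/Mg(OAc)2 buffer was flowed in, and tiles were imaged over ~14 h. Signals were normalised to baseline and to non-cleaving reference variants, and per-tile medians were fit to one- or two-exponential decays to give kobs. Weighted Michaelis–Menten fits across concentrations gave kcat and KM.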
# glucosamine-6-phosphate [2] = variants of: B1; assay: self-cleavage kobs at 640 uM GlcN6P; higher = faster cleavage; RNA array
# How it was run: as §1
# glucosamine-6-phosphate [3] = variants of: B1; assay: self-cleavage kobs at 2500 uM GlcN6P; higher = faster cleavage; RNA array
# How it was run: as §1
# glucosamine-6-phosphate [4] = variants of: B1; assay: self-cleavage kobs at 10000 uM GlcN6P; higher = faster cleavage; RNA array
# How it was run: as §1
# glucosamine-6-phosphate [5] = variants of: B1; assay: self-cleavage kobs at 160 uM GlcN6P; higher = faster cleavage; RNA array
# How it was run: as §1
Variant,self-cleavage kobs at 40 uM GlcN6P (glucosamine-6-phosphate [1]),self-cleavage kobs at 640 uM GlcN6P (glucosamine-6-phosphate [2]),self-cleavage kobs at 2500 uM GlcN6P (glucosamine-6-phosphate [3]),self-cleavage kobs at 10000 uM GlcN6P (glucosamine-6-phosphate [4]),self-cleavage kobs at 160 uM GlcN6P (glucosamine-6-phosphate [5])
A33G C50G G66U,0.000106 ± 2.6e-05 s⁻¹,0.000115 ± 5.2e-05 s⁻¹,0.000301 ± 0.0001 s⁻¹,5.3e-05 ± 2.2e-05 s⁻¹,–
A33U G60A,< 1e-05 s⁻¹,< 1e-05 s⁻¹,–,–,< 1e-05 s⁻¹
A33C G41C U47C A53G U54C U65G C70U,< 1e-05 s⁻¹,–,–,< 1e-05 s⁻¹,–
G32U A64G C71U,< 1e-05 s⁻¹,–,0.000459 ± 0.00016 s⁻¹,0.000175 ± 3.6e-05 s⁻¹,–
A33G G51A,< 1e-05 s⁻¹,–,< 1e-05 s⁻¹,< 1e-05 s⁻¹,< 1e-05 s⁻¹
C34A G38A,< 1e-05 s⁻¹,–,< 1e-05 s⁻¹,< 1e-05 s⁻¹,< 1e-05 s⁻¹
C34A G37A A48U,< 1e-05 s⁻¹,< 1e-05 s⁻¹,< 1e-05 s⁻¹,< 1e-05 s⁻¹,–
G32A G44C C71G,< 1e-05 s⁻¹,–,–,< 1e-05 s⁻¹,–
A33C G41C U57G,< 1e-05 s⁻¹,–,< 1e-05 s⁻¹,–,–
U31G A33G U56C,< 1e-05 s⁻¹,< 1e-05 s⁻¹,< 1e-05 s⁻¹,–,< 1e-05 s⁻¹
A33C G35C,< 1e-05 s⁻¹,< 1e-05 s⁻¹,–,< 1e-05 s⁻¹,< 1e-05 s⁻¹
U31C G38C A39C,< 1e-05 s⁻¹,–,< 1e-05 s⁻¹,–,–
U30G G60U,< 1e-05 s⁻¹,< 1e-05 s⁻¹,–,< 1e-05 s⁻¹,–
G32U G44A,< 1e-05 s⁻¹,–,–,–,–
C34G G41C G66U,< 1e-05 s⁻¹,–,–,< 1e-05 s⁻¹,–
G32A G63U,< 1e-05 s⁻¹,–,< 1e-05 s⁻¹,< 1e-05 s⁻¹,< 1e-05 s⁻¹
U31A U49G C71U,< 1e-05 s⁻¹,–,–,–,–
G32C A33U,< 1e-05 s⁻¹,< 1e-05 s⁻¹,< 1e-05 s⁻¹,–,< 1e-05 s⁻¹
A33G C71U,< 1e-05 s⁻¹,–,–,< 1e-05 s⁻¹,–
G32A U55G,4.93e-05 ± 1.7e-05 s⁻¹,0.000327 ± 5.7e-05 s⁻¹,0.000627 ± 0.00014 s⁻¹,0.00326 ± 0.00054 s⁻¹,–
U31G G43U U54A,< 1e-05 s⁻¹,–,–,–,–
A33G U65G,< 1e-05 s⁻¹,< 1e-05 s⁻¹,< 1e-05 s⁻¹,< 1e-05 s⁻¹,< 1e-05 s⁻¹
G32A A33C,< 1e-05 s⁻¹,–,–,–,< 1e-05 s⁻¹

Variant,self-cleavage kobs at 40 uM GlcN6P (glucosamine-6-phosphate [1]),self-cleavage kobs at 640 uM GlcN6P (glucosamine-6-phosphate [2]),self-cleavage kobs at 2500 uM GlcN6P (glucosamine-6-phosphate [3]),self-cleavage kobs at 10000 uM GlcN6P (glucosamine-6-phosphate [4]),self-cleavage kobs at 160 uM GlcN6P (glucosamine-6-phosphate [5])
G32A C50A U55G C71G,< 1e-05 s⁻¹,–,–,–,–
A33C G51A G66A C70G,< 1e-05 s⁻¹,–,–,–,–
U30G U47A,0.000162 ± 3.5e-05 s⁻¹,–,–,0.00566 ± 0.0013 s⁻¹,–
A33C G41A A42C G63C C67U,< 1e-05 s⁻¹,–,< 1e-05 s⁻¹,< 1e-05 s⁻¹,–
U31A A36G A52C,< 1e-05 s⁻¹,–,–,< 1e-05 s⁻¹,–
A33C G44C U57A A64U,< 1e-05 s⁻¹,< 1e-05 s⁻¹,< 1e-05 s⁻¹,< 1e-05 s⁻¹,< 1e-05 s⁻¹
U30G U47C C70G,< 1e-05 s⁻¹,5.55e-05 ± 2e-05 s⁻¹,0.000116 ± 2.6e-05 s⁻¹,7.72e-05 ± 2.2e-05 s⁻¹,–
C34A C58U,< 1e-05 s⁻¹,< 1e-05 s⁻¹,< 1e-05 s⁻¹,< 1e-05 s⁻¹,< 1e-05 s⁻¹
U31A A64C,< 1e-05 s⁻¹,–,–,4.57e-05 ± 1e-05 s⁻¹,–
U31C A33C A36G C71G,< 1e-05 s⁻¹,–,–,–,–
G32A C70U,6.22e-05 ± 6.9e-06 s⁻¹,0.000627 ± 9.7e-05 s⁻¹,0.000902 ± 0.00023 s⁻¹,0.00374 ± 0.00046 s⁻¹,0.000126 ± 2.7e-05 s⁻¹
A33C A42C,< 1e-05 s⁻¹,< 1e-05 s⁻¹,–,< 1e-05 s⁻¹,< 1e-05 s⁻¹
C34A C71A,< 1e-05 s⁻¹,< 1e-05 s⁻¹,–,< 1e-05 s⁻¹,–
C34A U45G,< 1e-05 s⁻¹,< 1e-05 s⁻¹,< 1e-05 s⁻¹,< 1e-05 s⁻¹,< 1e-05 s⁻¹
G32C U65A C67A,0.000151 ± 3.6e-05 s⁻¹,0.000426 ± 0.0001 s⁻¹,–,0.00023 ± 5.9e-05 s⁻¹,–
G32A G44U,< 1e-05 s⁻¹,< 1e-05 s⁻¹,–,–,–
G32U A36G G41C A52U C67A,< 1e-05 s⁻¹,–,–,–,–
U31G A48U,< 1e-05 s⁻¹,–,8.46e-05 ± 1.6e-05 s⁻¹,5.93e-05 ± 2.1e-05 s⁻¹,–
G32U U47G U69G,0.000146 ± 3.4e-05 s⁻¹,–,–,0.000404 ± 7.2e-05 s⁻¹,–
A33U U56A U65A,< 1e-05 s⁻¹,–,–,–,–
U30G G38U A39U G66A,< 1e-05 s⁻¹,–,–,< 1e-05 s⁻¹,–
G32U C58G A64G C67A,7.51e-05 ± 2.6e-05 s⁻¹,–,–,0.000152 ± 2.4e-05 s⁻¹,–
U31A A33G A39U G43A A48U,< 1e-05 s⁻¹,–,–,< 1e-05 s⁻¹,–

# Source: the supplement of paper PMC7125110
